Measurements as given in patent US20240190989A1 (BEIGENE SWITZERLAND, published 2024).
One block for each binder: values may come before it.

Columns and labels:
[1] = molecular target: T1, full-length human CEA on cells (MKN45, LOVO, L929/huCEA, CT26/CEA, CT26-OS8-CEA) (human, UniProt P06731 35-685); test: flow cytometry on CT26/CEA cells [panel A]
T1 construct: also called CEACAM5; native CEA
T1 sequence: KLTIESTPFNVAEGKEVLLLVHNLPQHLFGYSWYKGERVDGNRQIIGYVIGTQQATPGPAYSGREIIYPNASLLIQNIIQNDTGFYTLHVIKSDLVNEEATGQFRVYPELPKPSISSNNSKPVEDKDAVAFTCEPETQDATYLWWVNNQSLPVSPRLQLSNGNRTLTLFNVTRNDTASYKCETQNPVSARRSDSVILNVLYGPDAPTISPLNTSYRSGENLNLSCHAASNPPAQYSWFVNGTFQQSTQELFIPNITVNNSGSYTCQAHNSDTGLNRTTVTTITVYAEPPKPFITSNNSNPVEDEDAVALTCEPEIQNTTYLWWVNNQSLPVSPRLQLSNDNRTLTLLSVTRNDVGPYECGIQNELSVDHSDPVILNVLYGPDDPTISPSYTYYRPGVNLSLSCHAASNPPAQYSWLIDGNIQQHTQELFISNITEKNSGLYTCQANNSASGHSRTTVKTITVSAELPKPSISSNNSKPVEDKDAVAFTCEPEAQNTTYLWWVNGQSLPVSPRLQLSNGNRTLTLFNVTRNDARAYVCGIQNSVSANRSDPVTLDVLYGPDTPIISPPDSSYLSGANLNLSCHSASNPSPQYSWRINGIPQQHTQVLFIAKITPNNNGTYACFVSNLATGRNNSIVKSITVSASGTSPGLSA

[2] = molecular target: T2, full-length human CD137 on cells (Hut78/huCD137, HEK293 transfectants, JK-NFKB-CD137) (human, UniProt Q07011 24-255); test: flow cytometry on Hut78/huCD137 cells [panel A]
T2 construct: also called native CD137; TNFRSF9
T2 sequence (Q07011 24-255 limits assumed): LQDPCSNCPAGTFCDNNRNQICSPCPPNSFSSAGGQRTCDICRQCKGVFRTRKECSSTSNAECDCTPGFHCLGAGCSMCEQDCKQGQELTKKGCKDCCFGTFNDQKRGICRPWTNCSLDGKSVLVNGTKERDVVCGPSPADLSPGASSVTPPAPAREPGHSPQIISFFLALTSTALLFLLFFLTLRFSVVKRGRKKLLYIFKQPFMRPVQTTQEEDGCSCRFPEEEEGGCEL

[3] = molecular target: T3, human CD137 ECD-mIgG2a (human); test: SPR, Fc-fusion VH captured
T3 construct: ECD 24-183 of huCD137 fused to mouse IgG2a Fc; also called huCD137-mIgG2a; huCD137
T3 sequence (chain, as listed by the source limits assumed): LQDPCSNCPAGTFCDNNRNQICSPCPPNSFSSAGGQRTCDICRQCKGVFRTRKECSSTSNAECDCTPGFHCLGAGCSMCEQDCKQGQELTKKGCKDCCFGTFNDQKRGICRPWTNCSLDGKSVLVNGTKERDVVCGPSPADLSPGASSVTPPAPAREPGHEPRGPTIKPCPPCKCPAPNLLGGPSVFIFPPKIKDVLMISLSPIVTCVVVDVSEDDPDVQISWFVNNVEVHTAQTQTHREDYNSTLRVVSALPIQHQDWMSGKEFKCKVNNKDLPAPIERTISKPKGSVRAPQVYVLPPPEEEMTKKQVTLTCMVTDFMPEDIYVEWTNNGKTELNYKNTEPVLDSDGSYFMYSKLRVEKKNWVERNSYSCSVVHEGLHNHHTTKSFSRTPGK

[4] = molecular target: T2, full-length human CD137 on cells …; test: flow cytometry on Hut78/huCD137 cells
[5] = molecular target: T2, full-length human CD137 on cells …; test: flow cytometry competition on Hut78/huCD137 cells: serially diluted human CD137 ligand-mIgG2a against BGA-4712 VH-Fc, bound VH-Fc detected with anti-hu IgG Fc [panel B]
[6] = molecular target: T3, human CD137 ECD-mIgG2a; test: competition ELISA on coated human CD137 ECD-mIgG2a: serially diluted human CD137 ligand ECD-mIgG2a against BGA-5623 (IgG4), bound antibody detected with anti-human IgG-HRP [panel A]
[7] = molecular target: T2, full-length human CD137 on cells …; test: flow cytometry on Hut78/huCD137 cells [panel B]
[8] = molecular target: T2, full-length human CD137 on cells …; test: cell-based or functional assay
[9] = molecular target: T2, full-length human CD137 on cells …; test: cell-based or functional assay; remark: listed apart in the source
[10] = molecular target: T3, human CD137 ECD-mIgG2a; test: SPR, A-CEAxCD137 format
[11] = molecular target: T2, full-length human CD137 on cells …; test: flow cytometry on Hut78/huCD137 cells; remark: listed apart in the source

B2: BGA-5623-mutFc (Fc fusion VH Ab) (Fc fusion)
chain: EVQLLESGGGLVQPGGSLRLSCAASGFTVSAEDVGWVRQAPGKGLEWVSAILDKGGSTYYAESVKGRFTISRDNAKNTLYLQMSSLRAEDTAVYYCARIVYHAGGGVTFDTRGQGTQVTVSSGGGGSDKTHTCPPCPAPPAAGPSVFLFPPKPKDTLMISRTPEVTCVVVDVSHEDPEVKFNWYVDGVEVHNAKTKPREEQYNSTYRVVSVLTVLHQDWLNGKEYKCKVSNKALAAPIEKTISKAKGQPREPQVYTLPPSREEMTKNQVSLTCLVKGFYPSDIAVEWESNGQPENNYKTTPPVLDSDGSFFLYSKLTVDKSRWQQGNVFSCSVMHEALHNHYTQKSLSLSPGK
Kd [3]: 50.3 nM | EC50 (read off the curve) [4]: ~0.5 µg/mL

B4: anti-CEA Ab (IgG1) (antibody, V domains shown)
VH: QVQLVQSGAEVKKPGASVKVSCKASGYIFTSYYLHWVRQAPGQGLEWIGYINPQTGKTSYAQKFQGRVTMTRDTSTSTVYMELSSLRSEDTAVYYCAREYGNYNYPLDYWGQGTLVTVSS
VL: DIQMTQSPSSLSASVGDRVTITCRASENQYGYLAWYQQKPGKVPKLLIYNYKNLVEGVPSRFSGSGSGTDFTLTISSLQPEDVATYYCQHHLGTPYTFGQGTKVEIKR
binding result [7]: no binding (tested: last point just above 10^2 ug/ml)

B5: BE-189 (Format A BGA-5623) (bispecific antibody, human IgG1, kappa)
heavy: QVQLVQSGAEVKKPGASVKVSCKASGYIFTSYYLHWVRQAPGQGLEWIGYINPQTGKTSYAQKFQGRVTMTRDTSTSTVYMELSSLRSEDTAVYYCAREYGNYNYPLDYWGQGTLVTVSSASTKGPSVFPLAPSSKSTSGGTAALGCLVKDYFPEPVTVSWNSGALTSGVHTFPAVLQSSGLYSLSSVVTVPSSSLGTQTYICNVNHKPSNTKVDKKVEPKSCDKTHTCPPCPAPPAAGPSVFLFPPKPKDTLMISRTPEVTCVVVDVSHEDPEVKFNWYVDGVEVHNAKTKPREEQYNSTYRVVSVLTVLHQDWLNGKEYKCKVSNKALAAPIEKTISKAKGQPREPQVYTLPPSREEMTKNQVSLTCLVKGFYPSDIAVEWESNGQPENNYKTTPPVLDSDGSFFLYSKLTVDKSRWQQGNVFSCSVMHEALHNHYTQKSLSLSPGKGGGGSEVQLLESGGGLVQPGGSLRLSCAASGFTVSAEDVGWVRQAPGKGLEWVSAILDKGGSTYYAESVKGRFTISRDNAKNTLYLQMSSLRAEDTAVYYCARIVYHAGGGVTFDTRGQGTQVTVSS
light: DIQMTQSPSSLSASVGDRVTITCRASENQYGYLAWYQQKPGKVPKLLIYNYKNLVEGVPSRFSGSGSGTDFTLTISSLQPEDVATYYCQHHLGTPYTFGQGTKVEIKRTVAAPSVFIFPPSDEQLKSGTASVVCLLNNFYPREAKVQWKVDNALQSGNSQESVTEQDSKDSTYSLSSTLTLSKADYEKHKVYACEVTHQGLSSPVTKSFNRGEC
notes: Module ratio 2:2, inert Fc
Functional assay EC50 (PBMC cytokine release, in vitro CD137 activation) [8]: 0.31 µg/mL | Functions EC50 (PBMC cytokine release) [9]: 0.341 µg/mL | Kd [10]: 94.8 nM | EC50 [11]: 0.38 µg/mL

Continued, in another order:

EC50 (read off the curve) [2]: ~3 µg/mL
B1: BGA-4712 (anti-huCD137 VH domain antibody as VH-Fc with inert human IgG1 Fc) (Fc fusion)
chain: EVQLLESGGGLVQPGGSLRLSCAASGFMLSAEDVGWVRQAPGKGLEWVSAILDFGGSTYYADSVKGRFTISRDNSKNTLYLQMNSLRAEDTAVYYCARVVYHAGGGVTFDYWGQGTLVTVSSGGGGSDKTHTCPPCPAPPAAGPSVFLFPPKPKDTLMISRTPEVTCVVVDVSHEDPEVKFNWYVDGVEVHNAKTKPREEQYNSTYRVVSVLTVLHQDWLNGKEYKCKVSNKALAAPIEKTISKAKGQPREPQVYTLPPSREEMTKNQVSLTCLVKGFYPSDIAVEWESNGQPENNYKTTPPVLDSDGSFFLYSKLTVDKSRWQQGNVFSCSVMHEALHNHYTQKSLSLSPGK
binding result [1]: no binding (tested: last point just above 10^2 ug/ml)

IC50 (read off the curve) [5]: ~0.4 µg/mL | IC50 (read off the curve) [6]: ~1 µg/mL
B3: human CD137 ligand-mIgG2a (Fc fusion)
chain: EPRGPTIKPCPPCKCPAPNLLGGPSVFIFPPKIKDVLMISLSPIVTCVVVDVSEDDPDVQISWFVNNVEVHTAQTQTHREDYNSTLRVVSALPIQHQDWMSGKEFKCKVNNKDLPAPIERTISKPKGSVRAPQVYVLPPPEEEMTKKQVTLTCMVTDFMPEDIYVEWTNNGKTELNYKNTEPVLDSDGSYFMYSKLRVEKKNWVERNSYSCSVVHEGLHNHHTTKSFSRTPGKGGGGSREGPELSPDDPAGLLDLRQGMFAQLVAQNVLLIDGPLSWYSDPGLAGVSLTGGLSYKEDTKELVVAKAGVYYVFFQLELRRVVAGEGSGSVSLALHLQPLRSAAGAAALALTVDLPPASSEARNSAFGFQGRLLHLSAGQRLGVHLHTEARARHAWQLTQGATVLGLFRVTPEIPAGLPSPRSE
notes: also called human CD137 ligand ECD-mIgG2a; huCD137 ligand

Functions EC50 (PBMC cytokine release) [9]: 0.0768 µg/mL | Kd [10]: 21.4 nM | EC50 [11]: 0.21 µg/mL
B6: Format A BGA-3386 (bispecific antibody, human IgG1, kappa)
heavy: QVQLVQSGAEVKKPGASVKVSCKASGYIFTSYYLHWVRQAPGQGLEWIGYINPQTGKTSYAQKFQGRVTMTRDTSTSTVYMELSSLRSEDTAVYYCAREYGNYNYPLDYWGQGTLVTVSSASTKGPSVFPLAPSSKSTSGGTAALGCLVKDYFPEPVTVSWNSGALTSGVHTFPAVLQSSGLYSLSSVVTVPSSSLGTQTYICNVNHKPSNTKVDKKVEPKSCDKTHTCPPCPAPPAAGPSVFLFPPKPKDTLMISRTPEVTCVVVDVSHEDPEVKFNWYVDGVEVHNAKTKPREEQYNSTYRVVSVLTVLHQDWLNGKEYKCKVSNKALAAPIEKTISKAKGQPREPQVYTLPPSREEMTKNQVSLTCLVKGFYPSDIAVEWESNGQPENNYKTTPPVLDSDGSFFLYSKLTVDKSRWQQGNVFSCSVMHEALHNHYTQKSLSLSPGKGGGGSEVQLLESGGGLVQPGGSLRLSCAASGFTVSAEDVGWVRQAPGKGLEWVSAILDKGGSTYYAESVKGRFTISRDNAKNTLYLQMSSLRAEDTAVYYCARIVYHAGGGVTFDTWGQGTLVTVSS
light: DIQMTQSPSSLSASVGDRVTITCRASENQYGYLAWYQQKPGKVPKLLIYNYKNLVEGVPSRFSGSGSGTDFTLTISSLQPEDVATYYCQHHLGTPYTFGQGTKVEIKRTVAAPSVFIFPPSDEQLKSGTASVVCLLNNFYPREAKVQWKVDNALQSGNSQESVTEQDSKDSTYSLSSTLTLSKADYEKHKVYACEVTHQGLSSPVTKSFNRGEC
